Results reported in US20070196354A1, “Method of treating diabetes by inhibiting degradation of at least one of crebl1, atf6, and hnf-4 alpha by htra” (priority 2003, published 2007).

Target: T1, ATF6 (Homo sapiens, UniProt P18850)
T1 construct: expressed in transfected cells; host or cells: HEK293T
T1 sequence (P18850 1-670): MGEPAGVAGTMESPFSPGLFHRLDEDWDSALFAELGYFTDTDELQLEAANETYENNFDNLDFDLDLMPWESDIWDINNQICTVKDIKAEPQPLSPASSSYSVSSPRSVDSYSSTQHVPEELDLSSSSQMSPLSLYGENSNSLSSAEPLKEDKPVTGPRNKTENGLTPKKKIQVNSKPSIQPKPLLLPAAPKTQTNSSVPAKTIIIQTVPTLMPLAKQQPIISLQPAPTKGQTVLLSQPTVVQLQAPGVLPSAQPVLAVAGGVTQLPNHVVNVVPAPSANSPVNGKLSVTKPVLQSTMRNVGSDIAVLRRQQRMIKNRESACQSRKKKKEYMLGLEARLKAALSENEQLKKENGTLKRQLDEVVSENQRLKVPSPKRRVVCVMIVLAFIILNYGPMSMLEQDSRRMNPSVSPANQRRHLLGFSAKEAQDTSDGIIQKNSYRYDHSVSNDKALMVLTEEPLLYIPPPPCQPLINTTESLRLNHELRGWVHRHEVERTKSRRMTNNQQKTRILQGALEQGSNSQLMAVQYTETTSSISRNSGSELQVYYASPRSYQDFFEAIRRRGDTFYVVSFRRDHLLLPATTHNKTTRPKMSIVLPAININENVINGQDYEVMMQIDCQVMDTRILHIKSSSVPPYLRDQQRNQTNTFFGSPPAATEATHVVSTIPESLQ
Experiment: In vitro protease assay, ATF6 captured on resin
Type: biochemical
Conditions: 50 μg/ml, 37° C., four hours (4 h) or overnight (O/N), anti-c-Myc detection
Method: CREBL1 and ATF6 which were captured on the resin were used in the experiments in order to eliminate the influence of proteinaceous impurities contained in the soluble fractions prepared from the cells obtained by transfecting an expression plasmid of CREBL1 or ATF6. Three hundreds μl of each soluble fraction of CREBL1 and ATF6 was dispensed to six tubes (Nos. 1 to 6), followed by adding 20 μl of protein G sepharose 4 FF (Amersham) of 50% slurry that had been subjected to blocking with BSA, to each of tubes, subjected to overturned mixing at 4° C. for 1 hour, and then subjected to centrifugation (10,000 rpm, 10 sec, 4° C.) to collect the supernatant, and thus the pre-treatment (pre-clean) was performed. The resultant supernatant was mixed with 1.7 μl (2 μg) of anti-Myc antibody (Invitrogen), subjected to overturned mixing at 4° C. for 3 hours, followed by adding 20 μl of protein G sepharose 4 FF that had been subjected to blocking with BSA, and then subjected to overturned mixing at 4° C. overnight. Thus, CREBL1 and ATF6 were respectively captured on protein G sepharose 4 FF. […]

B1: mature HtrA2: SEQ ID NO: 4; mature protein generated from HtrA2 precursor by cleavage of N-terminal 133 residues, has protease activity (protein, listed as Homo sapiens)
chain: MAVPSPPPASPRSQYNFIADVVEKTAPAVVYIEILDRHPFLGREVPISNGSGFVVAADGLIVTNAHVVADRRRVRVRLLSGDTYEAVVTAVDPVADIATLRIQTKEPLPTLPLGRSADVRQGEFVVAMGSPFALQNTITSGIVSSAQRPARDLGLPQTNVEYIQTDAAIDFGNSGGPLVNLDGEVIGVNTMKVTAGISFAIPSDRLREFLHRGEKKNSSSGISGSQRRYIGVMMLTLSPSILAELQLREPSFPDVQHGVLIHKVILGSPAHRAGLRPGDVILAIGEQMVQNAEDVYEAVRTQSQLAVQIRRGRETLTLYVTPEVTE
modifications: mature HtrA2
  degradation of ATF6 (band by western blotting): the band of ATF6 was reduced significantly
